Experimental data: article PMC7988490, “Molecular insights into replication initiation in a multipartite genome harboring bacterium Deinococcus radiodurans” (The Journal of Biological Chemistry, 2020)
Values belong to the molecule of their own block, whether it stands above or below them.

Assays:
[1] = biological target: T1, drDnaB (DnaB) (Deinococcus radiodurans R1 (ATCC13939)) (UniProt Q9RWW6); assay: EMSA; conditions: nonspecific, EMSA: 50 mM Tris-HCl pH 8.0, 75 mM KCl, 5 mM MgSO4, 0.1 mM DTT, ~30 nM 32P-DNA, 37 C 15 min
T1 sequence: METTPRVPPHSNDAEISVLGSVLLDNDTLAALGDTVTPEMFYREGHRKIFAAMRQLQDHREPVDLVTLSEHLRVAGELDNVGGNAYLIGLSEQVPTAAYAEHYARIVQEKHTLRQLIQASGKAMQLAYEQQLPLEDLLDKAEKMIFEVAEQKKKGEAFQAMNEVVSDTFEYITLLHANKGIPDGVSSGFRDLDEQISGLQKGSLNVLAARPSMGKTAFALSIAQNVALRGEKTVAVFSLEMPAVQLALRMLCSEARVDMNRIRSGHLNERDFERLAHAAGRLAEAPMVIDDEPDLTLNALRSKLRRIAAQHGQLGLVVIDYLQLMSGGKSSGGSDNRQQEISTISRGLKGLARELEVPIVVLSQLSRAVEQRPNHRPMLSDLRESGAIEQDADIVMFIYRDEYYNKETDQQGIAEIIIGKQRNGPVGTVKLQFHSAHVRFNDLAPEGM

[2] = biological target: T2, recombinant drDnaA, purified (D. radiodurans, UniProt Q9RYE7 1-466); assay: SPR; 20 μM PprA immobilised on a bare gold sensor chip by EDC-NHS at 20 °C (~200 response units); 4–20 μM drDnaA or drDnaB incubated with 1 mM ATP and 1 mM MgCl2 in the mobile phase; 20 mM Tris pH 7.6; Autolab Esprit; conditions: both partners purified
T2 construct: DnaA of Deinococcus radiodurans, DR_0002
T2 sequence (looked up): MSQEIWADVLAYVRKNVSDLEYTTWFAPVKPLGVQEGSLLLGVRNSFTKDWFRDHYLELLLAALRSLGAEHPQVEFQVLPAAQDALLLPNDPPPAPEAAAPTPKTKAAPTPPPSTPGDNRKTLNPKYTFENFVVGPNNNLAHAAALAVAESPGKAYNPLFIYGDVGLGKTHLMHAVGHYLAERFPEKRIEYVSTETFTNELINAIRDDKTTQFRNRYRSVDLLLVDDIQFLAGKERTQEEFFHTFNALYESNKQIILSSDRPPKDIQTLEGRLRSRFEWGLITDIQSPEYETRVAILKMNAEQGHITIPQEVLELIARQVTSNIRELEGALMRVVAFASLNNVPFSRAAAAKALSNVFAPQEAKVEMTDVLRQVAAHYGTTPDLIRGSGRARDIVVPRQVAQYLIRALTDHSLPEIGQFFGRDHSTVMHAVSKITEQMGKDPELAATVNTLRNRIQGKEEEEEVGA

[3] = biological target: T3, recombinant drDnaB, purified (D. radiodurans, UniProt Q9RWW6 1-448); assay: as above; conditions: both partners purified
T3 construct: DnaB of Deinococcus radiodurans, DR_0549; the drdnaB gene was PCR amplified from genomic DNA of D. radiodurans R1 and cloned in pET28a(+) at BamHI and EcoRI
T3 sequence (looked up): T1 sequence

[4] = biological target: T4, drDnaB (DnaB) (Deinococcus radiodurans R1 (ATCC13939), UniProt Q9RWW6 1-448); assay: EMSA; 1 mM ATP; EMSA: 50 mM Tris-HCl pH 8.0, 75 mM KCl, 5 mM MgSO4, 0.1 mM DTT, +/- 1 mM ATP, ~30 nM 32P-DNA, 37 C 15 min; conditions: protein: recombinant; tags: N-terminal 6xHis (pET28a); chain copies: 6; label: 32P 5' end
T4 sequence: T1 sequence

[5] = biological target: T4, drDnaB (DnaB); assay: EMSA; ATPgS; EMSA: 50 mM Tris-HCl pH 8.0, 75 mM KCl, 5 mM MgSO4, 0.1 mM DTT, +/- 1 mM ATP, ~30 nM 32P-DNA, 37 C 15 min; conditions: protein: recombinant; tags: N-terminal 6xHis (pET28a); chain copies: 6; label: 32P 5' end
[6] = biological target: T4, drDnaB (DnaB); assay: EMSA; no ATP; EMSA: 50 mM Tris-HCl pH 8.0, 75 mM KCl, 5 mM MgSO4, 0.1 mM DTT, +/- 1 mM ATP, ~30 nM 32P-DNA, 37 C 15 min; conditions: protein: recombinant; tags: N-terminal 6xHis (pET28a); chain copies: 6; label: 32P 5' end

Molecule: oriCI 500 bp (13 DnaA boxes)
Kd ([1]; 1 mM ATP): 8.23 µM
Kd ([1]; no ATP, +/- 1 mM ATP): 8.89 µM

Kd [2]: 541 nM
Kd [3]: 971 nM
B1: recombinant PprA (histidine-tagged PprA, His-PprA), purified (natural protein, D. radiodurans, UniProt O32504 1-300, looked up)
chain: MLPLAFLICSGHNKGSMARAKAKDQTDGIYAAFDTLMSTAGVDSQIAALAASEADAGTLDAALTQSLQEAQGRWGLGLHHLRHEARLTDDGDIEILTDGRPSARVSEGFGALAQAYAPMQALDERGLSQWAALGEGYRAPGDLPLAQLKVLIEHARDFETDWSAGRGETFQRVWRKGDTLFVEVARPASAEAALSDAAWDVIASIKDRAFQRELMRRSEKDGMLGALLGARHAGAKANLAQLPEAHFTVQAFVQTLSGAAARNAEEYRAALKTAAAALEEYQGVTTRQLSEVLRHGLRES

Molecule: GGAATTCCAATGAACCGCAAAACCGCAAAAACCGTACCGA (ssDNA) [ssDNA oligo 99F (40 nt)]
Kd [4]: 1420 ± 50 nM
Kd [5]: 1020 ± 60 nM
Kd [6]: 3.11 ± 0.11 µM
